The text below walks through data of the Human Domainome abundance scans (Beltran et al. 2025).

The labels stand for the following.
B1: Ankyrin-2, residues 3571 to 3650; numbered along this chain, Q01484 (parent)
chain: ERLAYIADHLGFSWTELARELDFTEEQIHQIRIENPNSLQDQSHALLKYWLERDGKHATDTNLVECLTKINRMDIVHLME

± gives the uncertainty stated by the source.

The variants in the data set derive from B1. Kind of data set: abundance fitness (aPCA) (normalised: wild type 0, dead -1); higher = more abundant; growth selection in yeast, the domain comes from the species named. Conditions: Homo sapiens.
Turning to ERLAYIADHLGFSWTELARELDFTEEQIHQIRIKNPNSLQDQSHALLKYWLERDGKHATDTNLVECLTKINRMDIVHLME [E34K], the abundance fitness was -0.045 ± 0.16.

Take ERLAYIADHLGFSWTELARELDFTEEQIHQIRIDNPNSLQDQSHALLKYWLERDGKHATDTNLVECLTKINRMDIVHLME [E34D]: the abundance fitness was -0.129 ± 0.18.

Consider ERLAYIADHLGFSWTELARELDFTEEQIHQIRIRNPNSLQDQSHALLKYWLERDGKHATDTNLVECLTKINRMDIVHLME [E34R], for which the abundance fitness stood at 0.018 ± 0.047.

For the variant ERLAYIADHLGFSWTELARELDFTEEQIHQIRIANPNSLQDQSHALLKYWLERDGKHATDTNLVECLTKINRMDIVHLME [E34A], the abundance fitness was -0.048 ± 0.063.

Take ERLAYIADHLGFSWTELARELDFTEEQIHQIRIVNPNSLQDQSHALLKYWLERDGKHATDTNLVECLTKINRMDIVHLME [E34V]: the abundance fitness is -0.021 ± 0.051.

Consider ERLAYIADHLGFSWTELARELDFTEEQIHQIRIGNPNSLQDQSHALLKYWLERDGKHATDTNLVECLTKINRMDIVHLME [E34G], for which the abundance fitness is -0.058 ± 0.057.

As to ERLAYIADHLGFSWTELARELDFTEEQIHQIRIWNPNSLQDQSHALLKYWLERDGKHATDTNLVECLTKINRMDIVHLME [E34W], the abundance fitness was -0.022 ± 0.33.

For the variant ERLAYIADHLGFSWTELARELDFTEEQIHQIRICNPNSLQDQSHALLKYWLERDGKHATDTNLVECLTKINRMDIVHLME [E34C], the abundance fitness is -0.413 ± 0.27.

Take ERLAYIADHLGFSWTELARELDFTEEQIHQIRIQNPNSLQDQSHALLKYWLERDGKHATDTNLVECLTKINRMDIVHLME [E34Q]: the abundance fitness worked out at 0.085 ± 0.1.

On to ERLAYIADHLGFSWTELARELDFTEEQIHQIRISNPNSLQDQSHALLKYWLERDGKHATDTNLVECLTKINRMDIVHLME [E34S], for which the abundance fitness is -0.018 ± 0.049.

Regarding ERLAYIADHLGFSWTELARELDFTEEQIHQIRIYNPNSLQDQSHALLKYWLERDGKHATDTNLVECLTKINRMDIVHLME [E34Y], the abundance fitness is -0.148 ± 0.13.

Regarding ERLAYIADHLGFSWTELARELDFTEEQIHQIRIHNPNSLQDQSHALLKYWLERDGKHATDTNLVECLTKINRMDIVHLME [E34H], the abundance fitness was -0.048 ± 0.14.

For the variant ERLAYIADHLGFSWTELARELDFTEEQIHQIRIINPNSLQDQSHALLKYWLERDGKHATDTNLVECLTKINRMDIVHLME [E34I], the abundance fitness is -0.042 ± 0.15.

With ERLAYIADHLGFSWTELARELDFTEEQIHQIRIPNPNSLQDQSHALLKYWLERDGKHATDTNLVECLTKINRMDIVHLME [E34P], the abundance fitness was -0.678 ± 0.093.

As to ERLAYIADHLGFSWTELARELDFTEEQIHQIRITNPNSLQDQSHALLKYWLERDGKHATDTNLVECLTKINRMDIVHLME [E34T], the abundance fitness was -0.049 ± 0.069.

Consider ERLAYIADHLGFSWTELARELDFTEEQIHQIRILNPNSLQDQSHALLKYWLERDGKHATDTNLVECLTKINRMDIVHLME [E34L], for which the abundance fitness was -0.054 ± 0.049.

As to ERLAYIADHLGFSWTELARELDFTEEQIHQIRIFNPNSLQDQSHALLKYWLERDGKHATDTNLVECLTKINRMDIVHLME [E34F], the abundance fitness is -0.25 ± 0.13.

Consider ERLAYIADHLGFSWTELARELDFTEEQIHQIRINNPNSLQDQSHALLKYWLERDGKHATDTNLVECLTKINRMDIVHLME [E34N], for which the abundance fitness was -0.048 ± 0.13.

As for ERLAYIADHLGFSWTELARELDFTEEQIHQIRIENFNSLQDQSHALLKYWLERDGKHATDTNLVECLTKINRMDIVHLME [P36F], the abundance fitness is -0.08 ± 0.18.

On to ERLAYIADHLGFSWTELARELDFTEEQIHQIRIENCNSLQDQSHALLKYWLERDGKHATDTNLVECLTKINRMDIVHLME [P36C], for which the abundance fitness was -0.123 ± 0.1.

As to ERLAYIADHLGFSWTELARELDFTEEQIHQIRIENYNSLQDQSHALLKYWLERDGKHATDTNLVECLTKINRMDIVHLME [P36Y], the abundance fitness is -0.221 ± 0.13.

Take ERLAYIADHLGFSWTELARELDFTEEQIHQIRIENQNSLQDQSHALLKYWLERDGKHATDTNLVECLTKINRMDIVHLME [P36Q]: the abundance fitness is -0.123 ± 0.091.

For the variant ERLAYIADHLGFSWTELARELDFTEEQIHQIRIENINSLQDQSHALLKYWLERDGKHATDTNLVECLTKINRMDIVHLME [P36I], the abundance fitness is -0.805 ± 0.44.

As for ERLAYIADHLGFSWTELARELDFTEEQIHQIRIENMNSLQDQSHALLKYWLERDGKHATDTNLVECLTKINRMDIVHLME [P36M], the abundance fitness is -0.017 ± 0.12.

With ERLAYIADHLGFSWTELARELDFTEEQIHQIRIENTNSLQDQSHALLKYWLERDGKHATDTNLVECLTKINRMDIVHLME [P36T], the abundance fitness is -0.052 ± 0.087.

For ERLAYIADHLGFSWTELARELDFTEEQIHQIRIENNNSLQDQSHALLKYWLERDGKHATDTNLVECLTKINRMDIVHLME [P36N], the abundance fitness was found to be 0.253 ± 0.43.

As to ERLAYIADHLGFSWTELARELDFTEEQIHQIRIENSNSLQDQSHALLKYWLERDGKHATDTNLVECLTKINRMDIVHLME [P36S], the abundance fitness is -0.117 ± 0.063.

With ERLAYIADHLGFSWTELARELDFTEEQIHQIRIENDNSLQDQSHALLKYWLERDGKHATDTNLVECLTKINRMDIVHLME [P36D], the abundance fitness was -0.031 ± 0.16.

Take ERLAYIADHLGFSWTELARELDFTEEQIHQIRIENHNSLQDQSHALLKYWLERDGKHATDTNLVECLTKINRMDIVHLME [P36H]: the abundance fitness is -0.202 ± 0.2.

Turning to ERLAYIADHLGFSWTELARELDFTEEQIHQIRIENLNSLQDQSHALLKYWLERDGKHATDTNLVECLTKINRMDIVHLME [P36L], the abundance fitness was -0.081 ± 0.061.

Turning to ERLAYIADHLGFSWTELARELDFTEEQIHQIRIENGNSLQDQSHALLKYWLERDGKHATDTNLVECLTKINRMDIVHLME [P36G], the abundance fitness is -0.045 ± 0.047.

Take ERLAYIADHLGFSWTELARELDFTEEQIHQIRIENKNSLQDQSHALLKYWLERDGKHATDTNLVECLTKINRMDIVHLME [P36K]: the abundance fitness is -0.125 ± 0.1.

Turning to ERLAYIADHLGFSWTELARELDFTEEQIHQIRIENWNSLQDQSHALLKYWLERDGKHATDTNLVECLTKINRMDIVHLME [P36W], the abundance fitness is -0.074 ± 0.067.

ERLAYIADHLGFSWTELARELDFTEEQIHQIRIENVNSLQDQSHALLKYWLERDGKHATDTNLVECLTKINRMDIVHLME [P36V]: the abundance fitness was -0.14 ± 0.066.
